In experiment [1] the target is HMPV F protein (NL/1/00, A1 sublineage), on virus (human metapneumovirus). Kind of experiment: cell-based or functional assay.
In experiment [2] the target is RSV F protein of subtype A strain A2, on virus (respiratory syncytial virus subtype A strain A2) (UniProt P03420). In words: cell-based or functional assay.
Sequence of RSV F protein of subtype A strain A2, on virus (respiratory syncytial virus subtype A strain A2) (P03420 26-574): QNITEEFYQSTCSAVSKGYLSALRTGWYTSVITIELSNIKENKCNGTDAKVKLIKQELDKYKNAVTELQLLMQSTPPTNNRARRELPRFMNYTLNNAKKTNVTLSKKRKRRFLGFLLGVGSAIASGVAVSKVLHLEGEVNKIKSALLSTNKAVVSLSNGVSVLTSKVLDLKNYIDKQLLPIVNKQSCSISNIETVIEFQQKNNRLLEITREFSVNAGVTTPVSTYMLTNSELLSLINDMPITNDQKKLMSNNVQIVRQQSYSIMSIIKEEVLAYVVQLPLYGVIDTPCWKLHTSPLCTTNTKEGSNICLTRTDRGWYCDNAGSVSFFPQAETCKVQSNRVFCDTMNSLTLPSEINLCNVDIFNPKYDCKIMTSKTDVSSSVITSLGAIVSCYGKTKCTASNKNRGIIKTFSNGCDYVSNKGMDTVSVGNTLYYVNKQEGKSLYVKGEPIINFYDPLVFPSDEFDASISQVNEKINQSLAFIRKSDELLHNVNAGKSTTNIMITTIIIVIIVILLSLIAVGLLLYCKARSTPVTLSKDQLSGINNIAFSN

MPE8 (antibody) returned an HMPV-A1 IC50 in experiment [1] of 0.07 µg/mL. In experiment [2], this substance had an RSV-A2 IC50 of 0.04 µg/mL.

Values taken from patent publication US20220144922A1.
